In the nanobody polyreactivity screen of Harvey et al. (2022):

Experiment: yeast display, Sf9 membrane polyspecificity reagent, FACS + sequencing; frameworks hold sequencing errors
Method in brief: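 Nanobodies came from a synthetic yeast display library in Saccharomyces cerevisiae BJ5465, induced with galactose for 36–48 hours and stained for 1 hour at 4 °C with 10% biotinylated, detergent-solubilized Sf9 membrane reagent. Cells were enriched on streptavidin microbeads and then FACS-sorted, with low and high (top ~1%) gates set on anti-HA fluorescence for expression and streptavidin fluorescence for reagent binding. Each polyreactivity label reflects the gate a clone came from. Genes were amplified by colony PCR, sequenced by MiSeq 2 × 250 and filtered by CDR length.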

Sequence	polyreactivity (PSR sort gate)
QVQLVESGGGLVQAGGSLRLSCAASGIIFFLYAMGWYRQAPGKERELVAAISSGGSTYYADSVKGRFTISRDNAKNTVYLQMNSLKPEDTAVYYCAVVGYASRYEKYYYWGQGTQVTVSS	high polyreactivity
QVQLVESGGGLVQAGGSLRLSCAASGIIFFRYAMGWYRQAPGKEREWVAGISGSGGSTYYADSVKGRFTMSRDNAKNTVYLQMNSLKPEDTAVYYCAKRYYRPVPGGYYWGQGTQVTVSS	high polyreactivity
QVQLVESGGGLVQAGGSLRLSCAASGIIFGDKAMGWYRQAPGKERELVAAITIGGTSTYYADSVKGRFTISRDNAKNTVYLQMNRLKPEDTAVYYCAKTILYDCDYWGQGTQVTVSS	low polyreactivity
QVQLVESGGGLVQAGGSLRLSCAASGIIFGDNGMGWYRQAPGKERELVAVITSGDGTNYADSVKGRFTISRDNANNTFYLQMNSLKPEDTAVYYCAADFRIVVYGWGGSHMDYWGKGTQVTVSS	low polyreactivity
QVQLVESGGGLVQAGGSLRLSCAASGIIFGGYAMGWYRQAHGKERELVARITSGGSTNYADSVKGRFTISRDNAKNTVYLQMNSLKPEDTAVYYCNARGGWSWRFYYWGQGTQVTVSS	high polyreactivity
QVQLVESGGGLVQAGGSLRLSCAASGIIFGKNAMGWYRQAPGKERELVAAISRRGGGTYYADSVKGRFTISRDNAKNTVYLQMNSLKPEDTAVYYCAVKVGYVRLLYHYYYWGQGTQVTVSS	high polyreactivity
QVQLVESGGGLVQAGGSLRLSCAASGIIFGPYAMGWYIQAPGKERELVAAITDGGITYYADSVKGRFTISRDNAKNTVYLQMNSLKPEDTAVYYCAAESGYPVYTYVSSGDYWGQGTQVTVSS	low polyreactivity
QVQLVESGGGLVQAGGSLRLSCAASGIIFGRNTMGWYRPAPGKERELVAGISSNGGSTYYADSVKGRFTISRDNAKNTVYLQMNRLKPEDTAVYYCAAYYNIPDRRRVGYDYWGQGTQVTVSS	high polyreactivity
QVQLVESGGGLVQAGGSLRLSCAASGIIFGRYAMGWYRHAPGKERELVAAISTSGCSTYYADSVKGRFTISRDNAKTTVYLQMNSLKPEDTAVYYCAARHREAQRRYDYWGQGTQVTVSS	high polyreactivity
QVQLVESGGGLVQAGGSLRLSCAASGIIFGRYAMGWYRQAPGKERELVAAITRSGGRTYYADSVKGRFTISRDNAKNTVYLQMNSLKPEDTAVYYCAADASGHSYDYWGQGTQVTVSS	high polyreactivity
QVQLVESGGGLVQAGGSLRLSCAASGIIFGRYAMGWYRQAPGKERELVAVINWSGDSTYYADSVKGRFTISRDNAKNTVYLQMNSLKPEDTAVYYCAALNYKGRYRQYYWGQGTQVTVSS	high polyreactivity
QVQLVESGGGLVQAGGSLRLSCAASGIIFGRYAMGWYTPAPGKERELVATISYRGGRTYYADSVKGRFTISRDNAKNTVYLQMNSLKPEDTAVYYCAAPHFSYSGGTHDYWGQGTQVTVSS	high polyreactivity
QVQLVESGGGLVQAGGSLRLSCAASGIIFGRYTMGWYRQAPGKERELVAAITSSGITYYADSVKGRFTISRDNAKNTVYLQMHSLTPEDTAVYYCAADSPVSVTADDGYSGQGTQVTVSS	low polyreactivity
QVQLVESGGGLVQAGGSLRLSCAASGIIFGSNTMGWYRQAPGKERELVAAITSSDGSTHYADSVKGRFTISRDNAKNTVYLQMNTLKPEDTAVYYCAARKVTYGHSYGYDYWGQGTQVTVSS	low polyreactivity
QVQLVESGGGLVQAGGSLRLSCAASGIIFGSYAMGWYRQAPGKERELVAAISTSGGSTYYADSVKGRFTISRDNAKNTVYLQMNSLKPEDTAVYYCNKAGVYRDSSRYNYWGQGTQVTVSS	high polyreactivity
QVQLVESGGGLVQAGGSLRLSCAASGIIFGTNAMGWYRQAPGKERELVAGITSSGDSTYYADSVKGRFTISRDNAKNTVYLQMNSLKPEDTAVYYCARDIRTREFDSWGQGTQVTVSS	low polyreactivity
QVQLVESGGGLVQAGGSLRLSCAASGIIFGTYAMGWYRQAPGKERELVAAIRRSGTGTYYADSVKGRFTISRDNAKNTVYLQMNSLKPEDTAVDYCNVVRSYAYDSWGQGTQVTVSS	high polyreactivity
